Measurements as given in paper PMC5673894.

Target: recombinant histone H3K4me3, P68431
Test: co-immunoprecipitation with anti-H3K4me3 antibodies, quantified anti-GFP immunoblot
Conditions: chain shown with the change, 0.3-M NaCl extracts of XP-C fibroblasts, recombinant H3K4me3 2 µg, n = 3, read off a plot

| Binder | percent of parent | other results |
| --- | --- | --- |
| wild-type XPC-GFP fusion, Q01831 W690S (protein) MARKRAAGGEPRGRELRSQKSKAKSKARREEEEEDAFEDEKPPKKSLLSKVSQGKRKRGCSHPGGSADGPAKKKVAKVTVKSENLKVIKDEALSDGDDLRDFPSDLKKAHHLKRGATMNEDSNEEEEESENDWEEVEELSEPVLGDVRESTAFSRSLLPVKPVEIEIETPEQAKTRERSEKIKLEFETYLRRAMKRFNKGVHEDTHKVHLLCLLANGFYRNNICSQPDLHAIGLSIIPARFTRVLPRDVDTYYLSNLVKWFIGTFTVNAELSASEQDNLQTTLERRFAIYSARDDEELVHIFLLILRALQLLTRLVLSLQPIPLKSATAKGKKPSKERLTADPGGSSETSSQVLENHTKPKTSKGTKQEETFAKGTCRPSAKGKRNKGGRKKRSKPSSSEEDEGPGDKQEKATQRRPHGRERRVASRVSYKEESGSDEAGSGSDFELSSGEASDPSDEDSEPGPPKQRKAPAPQRTKAGSKSASRTHRGSHRKDPSLPAASSSSSSSKRGKKMCSDGEKAEKRSIAGIDQWLEVFCEQEEKWVCVDCVHGVVGQPLTCYKYATKPMTYVVGIDSDGWVRDVTQRYDPVWMTVTRKCRVDAEWWAETLRPYQSPFMDREKKEDLEFQAKHMDQPLPTAIGLYKNHPLYALKRHLLKYEAIYPETAAILGYCRGEAVYSRDCVHTLHSRDTSLKKARVVRLGEVPYKMVKGFSNRARKARLAEPQLREENDLGLFGYWQTEEYQPPVAVDGKVPRNEFGNVYLFLPSMMPIGCVQLNLPNLHRVARKLDIDCVQAITGFDFHGGYSHPVTDGYIVCEEFKDVLLTAWENEQAVIERKEKEKKEKRALGNWKLLAKGLLIRERLKRRYGPKSEAAAPHTDAGGGLSSDEEEGTSSQAEAARILAASWPQNREDEEKQKLKGGPKKTKREKKAAASHLFPFEQL | 72 % WT | – |
| wild-type XPC-GFP fusion, Q01831 E755K (protein) MARKRAAGGEPRGRELRSQKSKAKSKARREEEEEDAFEDEKPPKKSLLSKVSQGKRKRGCSHPGGSADGPAKKKVAKVTVKSENLKVIKDEALSDGDDLRDFPSDLKKAHHLKRGATMNEDSNEEEEESENDWEEVEELSEPVLGDVRESTAFSRSLLPVKPVEIEIETPEQAKTRERSEKIKLEFETYLRRAMKRFNKGVHEDTHKVHLLCLLANGFYRNNICSQPDLHAIGLSIIPARFTRVLPRDVDTYYLSNLVKWFIGTFTVNAELSASEQDNLQTTLERRFAIYSARDDEELVHIFLLILRALQLLTRLVLSLQPIPLKSATAKGKKPSKERLTADPGGSSETSSQVLENHTKPKTSKGTKQEETFAKGTCRPSAKGKRNKGGRKKRSKPSSSEEDEGPGDKQEKATQRRPHGRERRVASRVSYKEESGSDEAGSGSDFELSSGEASDPSDEDSEPGPPKQRKAPAPQRTKAGSKSASRTHRGSHRKDPSLPAASSSSSSSKRGKKMCSDGEKAEKRSIAGIDQWLEVFCEQEEKWVCVDCVHGVVGQPLTCYKYATKPMTYVVGIDSDGWVRDVTQRYDPVWMTVTRKCRVDAEWWAETLRPYQSPFMDREKKEDLEFQAKHMDQPLPTAIGLYKNHPLYALKRHLLKYEAIYPETAAILGYCRGEAVYSRDCVHTLHSRDTWLKKARVVRLGEVPYKMVKGFSNRARKARLAEPQLREENDLGLFGYWQTEEYQPPVAVDGKVPRNKFGNVYLFLPSMMPIGCVQLNLPNLHRVARKLDIDCVQAITGFDFHGGYSHPVTDGYIVCEEFKDVLLTAWENEQAVIERKEKEKKEKRALGNWKLLAKGLLIRERLKRRYGPKSEAAAPHTDAGGGLSSDEEEGTSSQAEAARILAASWPQNREDEEKQKLKGGPKKTKREKKAAASHLFPFEQL | 85 % WT | – |
| wild-type XPC-GFP fusion, Q01831 D748K; E755K (protein) MARKRAAGGEPRGRELRSQKSKAKSKARREEEEEDAFEDEKPPKKSLLSKVSQGKRKRGCSHPGGSADGPAKKKVAKVTVKSENLKVIKDEALSDGDDLRDFPSDLKKAHHLKRGATMNEDSNEEEEESENDWEEVEELSEPVLGDVRESTAFSRSLLPVKPVEIEIETPEQAKTRERSEKIKLEFETYLRRAMKRFNKGVHEDTHKVHLLCLLANGFYRNNICSQPDLHAIGLSIIPARFTRVLPRDVDTYYLSNLVKWFIGTFTVNAELSASEQDNLQTTLERRFAIYSARDDEELVHIFLLILRALQLLTRLVLSLQPIPLKSATAKGKKPSKERLTADPGGSSETSSQVLENHTKPKTSKGTKQEETFAKGTCRPSAKGKRNKGGRKKRSKPSSSEEDEGPGDKQEKATQRRPHGRERRVASRVSYKEESGSDEAGSGSDFELSSGEASDPSDEDSEPGPPKQRKAPAPQRTKAGSKSASRTHRGSHRKDPSLPAASSSSSSSKRGKKMCSDGEKAEKRSIAGIDQWLEVFCEQEEKWVCVDCVHGVVGQPLTCYKYATKPMTYVVGIDSDGWVRDVTQRYDPVWMTVTRKCRVDAEWWAETLRPYQSPFMDREKKEDLEFQAKHMDQPLPTAIGLYKNHPLYALKRHLLKYEAIYPETAAILGYCRGEAVYSRDCVHTLHSRDTWLKKARVVRLGEVPYKMVKGFSNRARKARLAEPQLREENDLGLFGYWQTEEYQPPVAVKGKVPRNKFGNVYLFLPSMMPIGCVQLNLPNLHRVARKLDIDCVQAITGFDFHGGYSHPVTDGYIVCEEFKDVLLTAWENEQAVIERKEKEKKEKRALGNWKLLAKGLLIRERLKRRYGPKSEAAAPHTDAGGGLSSDEEEGTSSQAEAARILAASWPQNREDEEKQKLKGGPKKTKREKKAAASHLFPFEQL | – | percent of parent (P = 0.0147 vs WT): 46 % WT |
| wild-type XPC-GFP fusion, Q01831 D748K (protein) MARKRAAGGEPRGRELRSQKSKAKSKARREEEEEDAFEDEKPPKKSLLSKVSQGKRKRGCSHPGGSADGPAKKKVAKVTVKSENLKVIKDEALSDGDDLRDFPSDLKKAHHLKRGATMNEDSNEEEEESENDWEEVEELSEPVLGDVRESTAFSRSLLPVKPVEIEIETPEQAKTRERSEKIKLEFETYLRRAMKRFNKGVHEDTHKVHLLCLLANGFYRNNICSQPDLHAIGLSIIPARFTRVLPRDVDTYYLSNLVKWFIGTFTVNAELSASEQDNLQTTLERRFAIYSARDDEELVHIFLLILRALQLLTRLVLSLQPIPLKSATAKGKKPSKERLTADPGGSSETSSQVLENHTKPKTSKGTKQEETFAKGTCRPSAKGKRNKGGRKKRSKPSSSEEDEGPGDKQEKATQRRPHGRERRVASRVSYKEESGSDEAGSGSDFELSSGEASDPSDEDSEPGPPKQRKAPAPQRTKAGSKSASRTHRGSHRKDPSLPAASSSSSSSKRGKKMCSDGEKAEKRSIAGIDQWLEVFCEQEEKWVCVDCVHGVVGQPLTCYKYATKPMTYVVGIDSDGWVRDVTQRYDPVWMTVTRKCRVDAEWWAETLRPYQSPFMDREKKEDLEFQAKHMDQPLPTAIGLYKNHPLYALKRHLLKYEAIYPETAAILGYCRGEAVYSRDCVHTLHSRDTWLKKARVVRLGEVPYKMVKGFSNRARKARLAEPQLREENDLGLFGYWQTEEYQPPVAVKGKVPRNEFGNVYLFLPSMMPIGCVQLNLPNLHRVARKLDIDCVQAITGFDFHGGYSHPVTDGYIVCEEFKDVLLTAWENEQAVIERKEKEKKEKRALGNWKLLAKGLLIRERLKRRYGPKSEAAAPHTDAGGGLSSDEEEGTSSQAEAARILAASWPQNREDEEKQKLKGGPKKTKREKKAAASHLFPFEQL | – | percent of parent (P = 0.0087 vs WT): 55 % WT |
